Measurements published in PMC7550751, “Application of Force to a Syndecan-4 Containing Complex With Thy-1–αVβ3 Integrin Accelerates Neurite Retraction” (Frontiers in Molecular Biosciences, 2020).

Assays:
[1] = biological target: T1, Recombinant αVβ3-Fc integrin (UniProt P06756 31-992; P05106 27-718); assay: zero force, optical tweezers
T1 chain 1: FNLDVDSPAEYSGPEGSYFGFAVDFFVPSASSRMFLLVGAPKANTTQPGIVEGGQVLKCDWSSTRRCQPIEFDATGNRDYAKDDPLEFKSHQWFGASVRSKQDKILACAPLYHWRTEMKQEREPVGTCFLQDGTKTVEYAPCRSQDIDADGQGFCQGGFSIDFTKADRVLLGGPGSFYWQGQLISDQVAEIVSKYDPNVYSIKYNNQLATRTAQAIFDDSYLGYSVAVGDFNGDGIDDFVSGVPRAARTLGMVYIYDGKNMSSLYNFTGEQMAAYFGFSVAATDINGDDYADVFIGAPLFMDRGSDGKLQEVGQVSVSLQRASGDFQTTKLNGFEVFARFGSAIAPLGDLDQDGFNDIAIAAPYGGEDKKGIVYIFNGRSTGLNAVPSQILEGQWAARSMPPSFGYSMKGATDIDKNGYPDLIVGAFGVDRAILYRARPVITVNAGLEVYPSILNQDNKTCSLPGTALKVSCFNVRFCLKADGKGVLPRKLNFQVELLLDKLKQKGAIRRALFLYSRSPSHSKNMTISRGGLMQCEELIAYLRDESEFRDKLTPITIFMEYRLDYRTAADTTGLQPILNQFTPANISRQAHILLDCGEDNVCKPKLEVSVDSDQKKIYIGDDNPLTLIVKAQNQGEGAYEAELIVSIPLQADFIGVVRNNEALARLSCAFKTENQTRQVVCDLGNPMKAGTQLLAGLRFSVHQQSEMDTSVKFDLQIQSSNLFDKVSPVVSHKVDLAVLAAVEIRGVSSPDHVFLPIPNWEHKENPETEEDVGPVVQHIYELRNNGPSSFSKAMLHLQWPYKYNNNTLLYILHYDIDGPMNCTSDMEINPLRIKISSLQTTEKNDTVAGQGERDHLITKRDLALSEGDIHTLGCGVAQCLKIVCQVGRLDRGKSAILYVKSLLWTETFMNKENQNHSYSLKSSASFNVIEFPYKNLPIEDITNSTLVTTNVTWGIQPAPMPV
T1 chain 2: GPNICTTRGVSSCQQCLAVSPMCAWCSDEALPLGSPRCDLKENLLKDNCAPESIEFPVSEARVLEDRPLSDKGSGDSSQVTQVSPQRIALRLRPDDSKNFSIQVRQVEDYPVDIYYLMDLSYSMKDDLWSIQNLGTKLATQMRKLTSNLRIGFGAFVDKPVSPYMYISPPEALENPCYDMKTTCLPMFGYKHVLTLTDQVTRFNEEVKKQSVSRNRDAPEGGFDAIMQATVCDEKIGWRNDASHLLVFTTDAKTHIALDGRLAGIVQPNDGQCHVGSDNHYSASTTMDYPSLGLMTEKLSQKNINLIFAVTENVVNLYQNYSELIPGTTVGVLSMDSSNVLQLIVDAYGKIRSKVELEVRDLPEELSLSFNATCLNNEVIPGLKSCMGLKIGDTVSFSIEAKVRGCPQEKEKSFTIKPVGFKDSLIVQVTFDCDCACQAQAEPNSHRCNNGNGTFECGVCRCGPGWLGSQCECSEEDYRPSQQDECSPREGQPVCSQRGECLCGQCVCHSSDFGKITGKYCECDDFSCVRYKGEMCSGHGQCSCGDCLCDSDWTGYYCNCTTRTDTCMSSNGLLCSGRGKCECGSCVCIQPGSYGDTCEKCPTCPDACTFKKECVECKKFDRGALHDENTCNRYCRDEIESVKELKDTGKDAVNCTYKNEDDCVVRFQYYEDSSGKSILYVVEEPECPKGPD

[2] = biological target: T2, Commercially purified human Syndecan (ectodomain)-4-Fc (human, UniProt P31431 19-145); assay: zero force, optical tweezers
T2 chain: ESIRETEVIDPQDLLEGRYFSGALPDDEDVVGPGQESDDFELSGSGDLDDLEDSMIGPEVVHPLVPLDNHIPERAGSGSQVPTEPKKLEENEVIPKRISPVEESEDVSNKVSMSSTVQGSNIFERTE

[3] = biological target: T1, Recombinant αVβ3-Fc integrin; assay: zero force, optical tweezers, with TRAIL-R2-Fc control on the bead
[4] = biological target: T2, Commercially purified human Syndecan …; assay: as above
[5] = biological target: T3, αVβ3-Fc + Syndecan-4-Fc (both on one bead) ( | human, UniProt P06756 31-992; P05106 27-718; P31431 19-145); assay: zero force, optical tweezers, both αvβ3-Fc and Syndecan-4-Fc on the bead
T3 chain 1: T1 chain 1
T3 chain 2: T1 chain 2
T3 chain 3: T2 chain

B1: Thy-1-Fc wild type (Fc fusion)
chain: QKVTSLTACLVNQNLRLDCRHENNTKDNSIQHEFSLTREKRKHVLSGTLGIPEHTYRSRVTLSNQPYIKVLTLANFTTKDEGDYFCELQVSGANPMSSNKSISVYRDKLVKC
koff [1]: 0.14 s⁻¹
koff [2]: 0.32 s⁻¹
koff [3]: 0.15 s⁻¹
koff [4]: 0.28 s⁻¹
koff [5]: 0.08 s⁻¹
